Data taken from patent publication US20190010243A1.

Experiments:
[1] = biological target: CD32A^H (UniProt P12318); assay: SPR (BIACORE); koff compared with wild-type Fc
[2] = biological target: soluble human FcγRIIIA V158 (human) (UniProt P08637); assay: SPR (BIACORE); koff compared with wild-type Fc
[3] = biological target: soluble human FcγRIIB (human) (UniProt P31994); assay: SPR (BIACORE); koff compared with wild-type Fc
[4] = biological target: soluble human FcγRIIIA F158 (human) (UniProt P08637); assay: SPR (BIACORE); koff compared with wild-type Fc
[5] = biological target: soluble human FcRn (human) (UniProt P55899); assay: SPR (Biacore 3000); ch4420 captured on protein-FITC surface; 500 nM hFcRn injected; pH 6.0

UniProt P31994, sequence (P31994 43-217 limits assumed): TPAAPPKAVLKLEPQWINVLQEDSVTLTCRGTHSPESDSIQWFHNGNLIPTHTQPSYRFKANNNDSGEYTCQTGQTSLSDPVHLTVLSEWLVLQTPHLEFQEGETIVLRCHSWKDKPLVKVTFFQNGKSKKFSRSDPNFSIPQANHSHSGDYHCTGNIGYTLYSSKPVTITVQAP
UniProt P12318, sequence (P12318 34-217 limits assumed): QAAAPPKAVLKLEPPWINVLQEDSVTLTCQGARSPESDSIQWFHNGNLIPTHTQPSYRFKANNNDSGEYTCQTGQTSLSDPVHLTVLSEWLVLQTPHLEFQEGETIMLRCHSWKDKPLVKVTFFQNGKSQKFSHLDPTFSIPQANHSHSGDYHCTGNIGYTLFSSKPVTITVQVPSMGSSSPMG

| Substance | ratio WT koff/mutant koff [1] [fold] | ratio WT koff/mutant koff [2] [fold] | ratio WT koff/mutant koff [3] [fold] | ratio WT koff/mutant koff [4] [fold] | fold increase of binding response over wild type [5] [fold] |
| --- | --- | --- | --- | --- | --- |
| Fc mutant 1 (F243L) | 0.6 | 4.8 | 0.8 |  |  |
| Fc mutant 2 (D270E) | 2.2 | 1.3 | 0.4 |  |  |
| Fc mutant 3 (R292P) | 0.7 | 2.4 | 0.3 | 1.6 |  |
| Fc mutant 6 (V305I) | 1.3 | 0.9 | 1.2 | 0.6 |  |
| Fc mutant 8 (P396L) | 1.6 | 1.3 | 2.6 |  |  |
| Fc mutant 9 (F243L P396L) | 1.5 |  | 1.6 |  |  |
| Fc mutant 11 (R292P V305I) | 0.8 |  | 0.4 |  |  |
| Fc mutant 17 (F243L R292P V305I P396L) | 0.8 | 4 | 0.4 | 2.3 |  |

Next, values leading:

| ratio WT koff/mutant koff [1] [fold] | ratio WT koff/mutant koff [2] [fold] | ratio WT koff/mutant koff [3] [fold] | ratio WT koff/mutant koff [4] [fold] | fold increase of binding response over wild type [5] [fold] | Substance |
| --- | --- | --- | --- | --- | --- |
|  |  | 0.2 |  |  | Fc mutant 4 (S298N) |
| 2.9 |  | 1.2 | 1.2 |  | Fc mutant 5 (Y300L) |
| 0.4 | 0.6 | 0.3 | 1.2 |  | Fc mutant 7 (A330V) |
| 0.5 | 4 | 0.2 |  |  | Fc mutant 10 (F243L R292P) |
| 1 | 7.4 | 0.6 | 4.6 |  | Fc mutant 12 (F243L R292P Y300L) |
| 0.2 | 2.6 | 0.1 | 1.4 |  | Fc mutant 13 (F243L R292P V305I) |
| 1.4 | 6.3 | 0.4 |  |  | Fc mutant 14 (F243L R292P P396L) |
| 1.5 | 1.9 | 0.9 | 1.9 |  | Fc mutant 15 (R292P V305I P396L) |
| 1.7 | 10.1 | 1.1 | 5.6 |  | Fc mutant 16 (F243L R292P Y300L P396L) |
| 3.2 | 10.1 | 1.4 | 8.3 |  | Fc mutant 18 (F243L R292P Y300L V305I P396L) |
|  |  |  |  | < 4 | ch4420 variant H435K (antibody) |
